Patent publication US20230365672A1 (KINDRED BIOSCIENCES, published 2023)

T1: biotinylated equine IL31 (immobilized to the biolayer interferometry sensor) (equine, biotinylated, sites not stated)
T1 chain: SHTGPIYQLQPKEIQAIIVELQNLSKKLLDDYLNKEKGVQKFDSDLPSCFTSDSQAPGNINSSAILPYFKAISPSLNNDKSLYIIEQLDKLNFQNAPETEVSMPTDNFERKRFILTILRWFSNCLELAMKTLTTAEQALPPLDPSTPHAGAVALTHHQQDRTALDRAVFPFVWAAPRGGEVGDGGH

T2: canine IL31 with C-terminal polyHis tag (canine, biotinylated (EZ-Link NHS-LC-biotin), sites not stated)
T2 construct: also called biotinylated canine IL31
T2 chain: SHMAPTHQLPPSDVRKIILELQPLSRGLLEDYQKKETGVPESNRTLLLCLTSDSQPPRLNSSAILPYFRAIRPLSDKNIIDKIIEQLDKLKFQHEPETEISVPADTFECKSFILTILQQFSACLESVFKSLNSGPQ


Key:
[1] = target: T1, biotinylated equine IL31 (immobilized …); assay: biolayer interferometry, biotinylated equine IL31 on the sensor, preliminary measurement
[2] = target: T2, canine IL31 with C-terminal polyHis tag; assay: biolayer interferometry (Octet), biotinylated canine IL31 on streptavidin tips, 2:1 binding model
Protocol: The binding analysis was performed using a biosensor Octet as follows. Briefly, canine IL31 was biotinylated. The free unreacted biotin was removed from biotinylated IL31 by extensive dialysis. Biotinylated canine IL31 was captured on streptavidin sensor tips. The association of four different concentrations (400, 200, 66.6, and 33 nM) of antibody and IL31 (human and canine, in different tests) was monitored for ninety seconds. Dissociation was monitored for 600 seconds. A buffer only blank curve was subtracted to correct for any drift. The data were fit to a 2:1 binding model using ForteBio™ data analysis software to determine the kₒₙ, koff, and the Kd. The buffer for dilutions and all binding steps was: 20 mM phosphate, 150 mM NaCl, pH 7.2.

Binder | Kd [1] | Kd [2]
M14 antibody (as used in Example 7) (antibody, V domains shown, also called monoclonal antibody M14) VH: EVQLQESGPSLVKPSQTLSLTCSVTGDSITSGYWNWIRKFPGNKLEYMGYISYSGITDYNPSLKSRISITRDTSKNQYYLQLNSVTTEDTATYYCARYGNYGYAMDYWGQGTSVTVSS VL: DIVLTQSPASLAVSLGQRATISCRASESVDTYGNSFMHWYQQKSGQSPKLLIYRASNLESGIPARFGGSGSRTDFTLTIDPVEADDVATYYCQQSYEDPWTFGGGTKLEIK | 10 to 50 nM | 
caninized M14 IgG-B (antibody, V domains shown, canine IgG-B; also called caninized M14 antibody; caninized IL31-mAb M14) VH: EVQLVESGPSLVKPGGSLRLTCSVTGDSITSGYWNWIRKFPGNKLEYMGYISYSGITDYNPSLKSRITISRDTSKNQYYLQLNSVTTEDTATYYCARYGNYGYAMDYWGQGTLVTVSS VL: DIVMTQSPASLSVSLGQRATISCRASESVDTYGNSFMHWYQQKPGQSPKLLIYRASNLESGIPARFGGSGSGTDFTLTIDPVQADDVATYYCQQSYEDPWTFGGGTKLEIKR |  | < 0.01 nM
